# Paper doi:10.1101/2021.09.03.458953
# Read-outs that look alike come from different tables or passages of the source.
# Legend:
# [1] = target: Sarbecovirus (SARS-CoV-2 / SARS-CoV) spike C-terminal hepta-peptide, wild type (UniProt P0DTC2); conditions: pH 6.5; 25°C; 150 mM NaCl
# [2] = target: Sarbecovirus (SARS-CoV-2 / SARS-CoV) spike C-terminal hepta-peptide, wild type (UniProt P0DTC2); conditions: pH 7.5; 25°C; 150 mM NaCl
# [3] = target: Sarbecovirus (SARS-CoV-2 / SARS-CoV) spike C-terminal hepta-peptide, wild type (UniProt P0DTC2); conditions: pH 7.5; 25°C; 150 mM NaCl; remark: listed apart in the source
substance,measurement,setting,value
Coatomer subunit alpha N-terminal WD40 domain (alphaCOPI-WD40) L181K;L185K;I192K;L196K;F197K,equilibrium KD,[1],1400 ± 150 nM
same,kinetic KD,[2],2750 ± 90 nM
same,equilibrium KD,[3],4170 ± 40 nM
